Experimental findings from US20100285016A1 (Genentech, published 2010) are described below.

This test addresses T1, PRO34128-Fc fusion protein (human, UniProt Q6UXV0 19-351, limits assumed).
T1 construct: Used as conditioned medium; not shown: Fc portion
T1 sequence: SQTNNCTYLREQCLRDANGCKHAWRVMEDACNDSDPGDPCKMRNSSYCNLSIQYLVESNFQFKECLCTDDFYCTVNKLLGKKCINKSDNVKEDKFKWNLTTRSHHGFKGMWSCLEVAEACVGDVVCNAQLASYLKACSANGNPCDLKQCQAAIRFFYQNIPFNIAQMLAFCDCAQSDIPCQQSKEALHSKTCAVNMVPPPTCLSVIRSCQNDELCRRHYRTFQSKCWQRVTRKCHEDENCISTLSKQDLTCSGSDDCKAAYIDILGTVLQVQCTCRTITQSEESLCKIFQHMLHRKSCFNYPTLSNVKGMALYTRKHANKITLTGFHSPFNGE
The test is described as follows: co-immunoprecipitation with protein-A beads from mixed conditioned media, anti-FLAG western blot. The method, then: GFR1-Fc, GFR2-Fc, GFR3-Fc, GFR4-Fc and PRO34128-Fc fusion proteins were produced by transfecting appropriate expression constructs using Fugene6™ (Roche Biosciences). C-terminally FLAG-tagged GDNF, NRTN, ARTN, PSPN and LEFTY-B were also produced in 293T cells by transfecting the appropriate expression construct in 293T cells using Fugene6™. All expression constructs are under CMV promoter control. The conditioned media were collected 48 hours post transfection and appropriate Fc fusion proteins (as indicated in the FIG. 6A) were mixed with the ligands and the interacting complexes were immunoprecipitated using protein-A beads (Sigma). Immunoprecipiated proteins were resolved on a SDS-PAGE and detected by western blotting. The co-precipitating FLAG-tagged proteins were detected using an anti-FLAG antibody (Sigma) at a final concentration of 1 μg/ml, HRP-conjugated anti-mouse antibody (ICN Biosciences) and a chemiluminescent substrate (Amersham).

B1: C-terminally FLAG-tagged NRTN (ligand, UniProt Q99748 96-197, looked up)
chain: ARLGARPCGLRELEVRVSELGLGYASDETVLFRYCAGACEAAARVYDLGLRRLRQRRRLRRERVRAQPCCRPTAYEDEVSFLDAHSRYHTVHELSARECACV
notes: Produced in 293T cells and used as conditioned medium; also called neurturin; not shown: C-terminal FLAG tag
As for B1, the binding result is listed as “no binding”.

B2: C-terminally FLAG-tagged PSPN (ligand, UniProt O60542 61-156, looked up)
chain: ALSGPCQLWSLTLSVAELGLGYASEEKVIFRYCAGSCPRGARTQHGLALARLQGQGRAHGGPCCRPTRYTDVAFLDDRHRWQRLPQLSAAACGCGG
notes: Produced in 293T cells and used as conditioned medium; not shown: C-terminal FLAG tag
Take B2: the binding result is recorded as “no binding”.

B3: C-terminally FLAG-tagged ARTN (ligand, UniProt Q5T4W7 108-220, looked up)
chain: AGGPGSRARAAGARGCRLRSQLVPVRALGLGHRSDELVRFRFCSGSCRRARSPHDLSLASLLGAGALRPPPGSRPVSQPCCRPTRYEAVSFMDVNSTWRTVDRLSATACGCLG
notes: as for B2
As to B3, the binding result is reported as “no binding”.
